Experimental data from US20060257406A1 (published 2006).

B1: TAR1-5-19d4 (other)
chain: DIQMTQSPSSLSASVGDRVTITCRASQSIDSYLHWYQQKPGKAPKLLIYSASELQSGVPSRFSGSGSGTDFTLTISSLQPEDFATYYCQQVVWRPFTFGQGTKVEIKRGGGGSGGGGSGGGGSGGGGSGGGGSDIQMTQSPSSLSASVGDRVTITCRASQSVKEFLWWYQQKPGKAPKLLIYMASNLQSGVPSRFSGSGSGTDFTLTISSLQPEDFATYYCQQKFKLPRTFGQGTKVEIK
B2: TAR1-5-19 dAb monomer (other)
VL: DIQMTQSPSSLSASVGDRVTITCRASQSIDSYLHWYQQKPGKAPKLLIYSASELQSGVPSRFSGSGSGTDFTLTISSLQPEDFATYYCQQVVWRPFTFGQGTKVEIKR
notes: also called TAR1-5-19 monomer; TAR1-5-19 Vκ dAb
B3: trimeric TAR1-5-19CYS (other)
chain: DIQMTQSPSSLSASVGDRVTITCRASQSIDSYLHWYQQKPGKAPKLLIYSASELQSGVPSRFSGSGSGTDFTLTISSLQPEDFATYYCQQVVWRPFTFGQGTKVEIKRC
modifications: C-terminal Cys coupled to TMEA (Tris[2-maleimidoethyl]amine)
notes: also called the trimer; TAR1-5-19 homotrimer

Key:
human TNFα [1] = molecular target: T1, human TNFα (human, UniProt P01375 77-233); assay: TNF receptor assay (ELISA): inhibition of TNF binding to plate-bound TNF receptor 1-Fc
T1 construct: also called TAR1; TNF alpha
T1 sequence (P01375 77-233 limits assumed): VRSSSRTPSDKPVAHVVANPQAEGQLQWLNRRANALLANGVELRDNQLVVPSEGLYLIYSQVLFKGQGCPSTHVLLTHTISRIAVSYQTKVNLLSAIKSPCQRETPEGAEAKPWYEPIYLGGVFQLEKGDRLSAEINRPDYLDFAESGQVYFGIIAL

human TNFα [2] = molecular target: T1, human TNFα; assay: TNF receptor assay (ELISA), fermenter material purified by cation exchange FPLC
human TNFα [3] = molecular target: T1, human TNFα; assay: cell-based or functional assay
human TNFα [4] = molecular target: T1, human TNFα; assay: TNF receptor assay (ELISA): inhibition of TNF binding to plate-bound TNF receptor 1-Fc; remark: listed apart in the source
human TNFα [5] = molecular target: T1, human TNFα; assay: not stated; printed in the column 'Equilibrium dissocation constant (Kd = Koff/Kon)' of the data summary
human TNFα [6] = molecular target: T1, human TNFα; assay: TNF receptor assay (ELISA): inhibition of TNF binding to plate-bound TNF receptor 1-Fc; remark: listed apart in the source

Row | Binder | IC50 (human TNFα [1]) [nM] | IC50 (human TNFα [2]) [nM] | ND50 in the cell assay (human TNFα [3]) [nM] | IC50 (human TNFα [4]) [nM] | Kd (human TNFα [5]) [nM] | IC50 (human TNFα [6]) [nM]
1 | B1 | 2 to 5 | 8 | ~5 | – | – | –
2 | B2 | – | – | ~30 | 30 | 30 | –
3 | B3 | – | – | – | – | – | 0.3
